Test results: patent US20240226186A9, “OBLIGATE ANAEROBIC HUMAN INTESTINAL MICROBE FOR CANCER TREATMENT, AND USE THEREOF” (HEALTHBIOME, priority 2019, published 2024)

B1: HB03-03: protein produced by the HB03 strain, SEQ ID NO 2, overexpressed in E. coli and purified (protein)
chain: IPESSVPAAAVSSVKGAYPNAGPIEWDSEMHGMERIYEAEFRINGFQFDVKIAPDGKIVRIKEEIAASSLPEAVRASVLKRYPGCRIKEAEKITEGELVRYKVEVADSRDDYDVLIAPDGNILHVDR
modifications: HB03-03
B2: HB03-01: protein produced by the HB03 strain, SEQ ID NO 1, overexpressed in E. coli and purified (protein)
chain: IVNSKRSELDKKISIAAKEIKSANAAEITPSRSSNEELEKELNRYAKAVGSLETAYKPFLASSALVPTTPTAFQNELKTFRDSLISSCKKKNILITDTSSWLGFQVYSTQAPSVQAASTLGFELKAINSLVNKLAECGLSKFIKVYRPQLPIETPANNPEESDEADQAPWTPMPLEIAFQGDRESVLKAMNAITGMQDYLFTVNSIRIRNERMMPPPIANPAAAKPAAAQPATGAASLTPADEATAPAAPAIQQVIKPYMGKEQVFVQVSLNLVHFNQPKAQEPSED
modifications: HB03-01

What was measured:
caspase-3 = assay: Western blot of caspase-3 activity level in lung cancer cells; format: cell-based; conditions: LLC lung cancer cells, 10 μg/mL for 24 hours (FIG. 18C)
Protocol: (§1) Then, it was investigated whether the purified HB03-01 and HB03-03 proteins affect the proliferation or apoptosis of cancer cells. Specifically, after treating colorectal cancer cells (CT26) and lung cancer cells (LLC) with the HB03-derived protein HB03-01 at concentrations of 0 (untreated), 0.1, 1.0 or 10 μg/mL or with HB03-03 at 10 μg/mL, the proliferation of the cancer cells and the activity of the apoptosis-regulating enzyme caspase-3 were investigated.
Western blot was conducted to investigate the activity level of caspase-3. Lung cancer cells treated with 10 μg/mL of HB03-01 or HB03-03 for 24 hours were homogenized in an ice-cold 20 mM Tris-HCl buffer (pH 7.5) containing 2 mM EDTA (ethylenediaminetetraacetic acid), 0.5 mM EGTA (ethylene glycol tetraacetic acid), 300 mM sucrose and 2 mM PMSF (phenylmethylsulfonyl fluoride). After electrophoresing 50 μg of proteins on 15% SDS-PAGE (sodium dodecyl sulfate-polyacrylamide gel electrophoresis) gel, they were transferred onto a PVDF (polyvinylidene fluoride) membrane using a semidry transfer system (Hoefer, Holliston, MA, USA). Non-specific binding was blocked by incubating with 5% non-fat dry milk. […] The immune complexes were detected using an ECL detection kit (Amersham Biosciences Korea, Seoul, Korea) and auto-radiographed onto an X-ray film. […]

[1] = test system: MC38 colorectal cancer cells; assay: Tumor growth in mice inoculated with MC38 colorectal cancer cells; format: in vivo, C57BL/6 JAX mice; conditions: administered 5 times until day 16 with 2-day intervals from day 5 (FIG. 19)
Text: 6- to 8-week old male C57BL/6J JAX and BALB/c mice purchased from Daehan Biolink were used. Each of the mice was housed in a cage and was maintained under a controlled environment (12-hour light/dark cycle, light-off at 7 pm) with free access to feed and water ad libitum. Tumorigenesis was induced by injecting pancreatic cancer cells (Panc02), melanoma cells (B16F10), glioma cells (GL261), sarcoma cells (MCA205) colorectal cancer cells (MC38) and lung cancer cells (LLC) to the C57BL/6 JAX mice and injecting colorectal cancer cells (CT26) to the BALB/c mice. Specifically, 1×10^7 cells/100 μL of Panc02, 2×10^5 cells/100 μL of B16F10, 5×10^5 cells/100 μL of GL261, 5×10^5 cells/100 μL of MCA205, 5×10^5 cells/100 μL of MC38, 5×10^5 cells/100 μL of LLC or 5×10^5 cells/100 μL of CT26 tumor cells were subcutaneously injected to the mice. Tumor size was measured with 2- or 3-day intervals until the end of the experiment, and tumor volume was calculated as length×width^2×0.5. In order to investigate the change in tumor size and immune environment owing to HB03 and its fragment, intestinal contents were recovered, immersed in liquid nitrogen and then kept at −80° C. All animal experimental procedures were approved by the Animal Care and Use Committee of Korea Research Institute of Bioscience and Biotechnology. […]

lung cancer cells (LLC) = assay: MTT assay, proliferation of lung cancer cells; format: cell-based; conditions: LLC, 0.1, 1.0 or 10 μg/mL for 48 hours, 2-DG 20 mM (FIG. 18B)
Protocol: as §1
(§2) MTT assay was conducted to investigate the change in the proliferation of the cancer cells. The cancer cells were cultured using a DMEM medium (Gibco, USA) for 24 hours on a 96-well plate at 1×10^4 cells/well in a 5% CO2 incubator at 37° C. A low-glucose condition was maintained by treating with 2-deoxyglucose (2-DG) to a final concentration of 20 mM. After culturing for 6 hours, HB03-01 was treated at a concentration of 0, 0.1, 1.0 or 10 μg/mL for 48 hours. After adding 10 μL of an MTT solution, the cells were cultured further for 2 hours. After removing the medium from the 96-well plate and dissolving a formazan formed on the plate with 100 μL of DMSO, absorbance was measured at 540 nm using an ELISA reader (Model 680, BioRad). A control group was treated with 0 μg/mL HB03-01 (untreated), and the measurement values were represented as relative cell survivability (%) with respect to the number of cells in the control group as 100%.

[2] = test system: colorectal cancer cells (CT26); assay: MTT assay, proliferation of colorectal cancer cells; format: cell-based; conditions: CT26, 0.1, 1.0 or 10 μg/mL for 48 hours, 2-DG 20 mM (FIG. 18A)
Protocol: as §1, §2

Molecule | Activation of apoptosis-regulating enzyme (caspase-3) (caspase-3) | Tumor growth vs control group, post-treatment with HB03-derived protein [1] | Proliferation of lung cancer cells (relative cell survivability) (lung cancer cells (LLC)) | Proliferation of colorectal cancer cells (relative cell survivability) [2]
B1 | activated | significantly inhibit tumor growth |  | 
B2 | activated | significantly inhibit tumor growth | significantly decreased | significantly decreased
